From PMC8998802

Target: CaVβ2a residues 203 to 425, His-tagged
Experiment: MST

Kd | Substance
12 to 208 nM | AID-CaV2.2 peptide
18.3 to 93 nM | AID-CaV2.1 peptide
